Experimental data published in publication PMC7264852, “Structural and Hydrodynamic Characterization of Dimeric Human Oligoadenylate Synthetase 2” (Biophysical Journal, 2020).

Columns and labels:
[1] = biological target: OAS2 (Homo sapiens) (UniProt P29728); conditions: cited from earlier work
[2] = biological target: recombinant human OAS1 (2′-5′-oligoadenylate synthetase 1) (human) (UniProt P00973); assay: SEC-SAXS; OAS1 loaded at 4.14 g/L (50 μL) on a Shodex KW404 column, Diamond Light Source B21; peak-1 and peak-2 analysed separately; Mw by SAXS MoW
[3] = biological target: recombinant human OAS1 (2′-5′-oligoadenylate synthetase 1) (human) (UniProt P00973); assay: AUC; sedimentation velocity, OAS1 at 2.0–3.5 g/L, 20°C, 25,000 rpm, 20 mM Tris pH 7.2, 100 mM NaCl, 1 mM DTT, 10% glycerol; monomer to dimer
[4] = biological target: the molecule itself; assay: SEC-SAXS; OAS2 loaded at 4.00 g/L (50 μL) on a Shodex KW404 column, Diamond Light Source B21; volume-based molecular weight from DAMMIN

Which Kd [1] does the source give for OAS2 (from UniProt P29728) here?
The Kd was 5.1 nM.

What does the source list for “recombinant human OAS1 (2′-5′-oligoadenylate synthetase 1) (from UniProt P00973 1-400) (enzyme)”?
stoichiometry N [2]: 2; stoichiometry N [3]: 2

B1: FLAG-tagged OAS2 (recombinant human 2′-5′-oligoadenylate synthetase 2, wild type) (enzyme, UniProt P29728-2 1-687, looked up)
chain: MGNGESQLSSVPAQKLGWFIQEYLKPYEECQTLIDEMVNTICDVLQEPEQFPLVQGVAIGGSYGRKTVLRGNSDGTLVLFFSDLKQFQDQKRSQRDILDKTGDKLKFCLFTKWLKNNFEIQKSLDGFTIQVFTKNQRISFEVLAAFNALSLNDNPSPWIYRELKRSLDKTNASPGEFAVCFTELQQKFFDNRPGKLKDLILLIKHWHQQCQKKIKDLPSLSPYALELLTVYAWEQGCRKDNFDIAEGVRTVLELIKCQEKLCIYWMVNYNFEDETIRNILLHQLQSARPVILDPVDPTNNVSGDKICWQWLKKEAQTWLTSPNLDNELPAPSWNVLPAPLFTTPGHLLDKFIKEFLQPNKCFLEQIDSAVNIIRTFLKENCFRQSTAKIQIVRGGSTAKGTALKTGSDADLVVFHNSLKSYTSQKNERHKIVKEIHEQLKAFWREKEEELEVSFEPPKWKAPRVLSFSLKSKVLNESVSFDVLPAFNALGQLSSGSTPSPEVYAGLIDLYKSSDLPGGEFSTCFTVLQRNFIRSRPTKLKDLIRLVKHWYKECERKLKPKGSLPPKYALELLTIYAWEQGSGVPDFDTAEGFRTVLELVTQYQQLCIFWKVNYNFEDETVRKFLLSQLQKTRPVILDPAEPTGDVGGGDRWCWHLLAKEAKEWLSSPCFKDGTGNPIPPWKVPVKVI
notes: human 2′-5′-oligoadenylate synthetase 2 (OAS2); residues D408, D410, D481, C668, F669, K670 are named; The N-terminal position of FLAG is stated only for the CAFAKA mutant; also called FLAG-OAS2; wild-type OAS2; source: HEK293T, transfected (pcDNA3); in lysate for the co-immunoprecipitation
Which “stoichiometry N” value [4] does the source give for B1 here?
Its value is 2.
